Test system: Escherichia coli TOP10
Test: shrunken log2 fold change of peptide-encoding DNA abundance (4.5 h post-induction vs induction); higher = less antimicrobial activity (less host growth inhibition)
Conditions: time post-induction: 4.5 h; library: site-saturation at positions 5, 18, 19, 20
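Also: peptides expressed intracellularly from a pBAD plasmid library in pooled LB shake-flask culture, induced with 0.3% L-arabinose, DNA abundance read by NGS, three biological replicates, DESeq2 with apeglm shrinkage.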

| Sequence | shrunken log2 fold change |
| --- | --- |
| RRIRKRPPRLPRPRPRPYNTPRP | -0.339 |
| RRIRKRPPRLPRPRPRPYPFPRP | 0.00884 |
| RRIRKRPPRLPRPRPRPYPGPRP | -0.142 |
| RRIRKRPPRLPRPRPRPYPTPRP | -0.0559 |
| RRIRKRPPRLPRPRPRPYQIPRP | -0.000276 |
| RRIRKRPPRLPRPRPRPYRKPRP | 0.0413 |
| RRIRKRPPRLPRPRPRPYSFPRP | -0.119 |
| RRIRKRPPRLPRPRPRPYTLPRP | 0.0187 |
| RRIRKRPPRLPRPRPRPYWFPRP | 0.00102 |
| RRIRKRPPRLPRPRPRPYWNPRP | -0.106 |
| RRIRKRPPRLPRPRPRPYWWPRP | -0.454 |
| RRIRKRPPRLPRPRPRPYYAPRP | -0.0013 |
| RRIRLRPPRLPRPRPRPAAWPRP | 0.32 |
| RRIRLRPPRLPRPRPRPACNPRP | -0.191 |
| RRIRLRPPRLPRPRPRPACYPRP | -0.202 |
| RRIRLRPPRLPRPRPRPAFRPRP | 0.0862 |
| RRIRLRPPRLPRPRPRPAHSPRP | 0.0693 |
| RRIRLRPPRLPRPRPRPAIPPRP | -0.0222 |
| RRIRLRPPRLPRPRPRPAIQPRP | 0.987 |
| RRIRLRPPRLPRPRPRPAIRPRP | -0.111 |
| RRIRLRPPRLPRPRPRPAIWPRP | 0.016 |
| RRIRLRPPRLPRPRPRPANCPRP | -0.291 |
| RRIRLRPPRLPRPRPRPANHPRP | -0.333 |
| RRIRLRPPRLPRPRPRPAPLPRP | 0.273 |
| RRIRLRPPRLPRPRPRPARDPRP | 0.426 |

| Sequence | shrunken log2 fold change |
| --- | --- |
| RRIRLRPPRLPRPRPRPATEPRP | 0.149 |
| RRIRLRPPRLPRPRPRPATPPRP | 1.05 |
| RRIRLRPPRLPRPRPRPAVEPRP | -0.0223 |
| RRIRLRPPRLPRPRPRPAWMPRP | -0.0208 |
| RRIRLRPPRLPRPRPRPAWSPRP | 0.103 |
| RRIRLRPPRLPRPRPRPAYHPRP | -0.249 |
| RRIRLRPPRLPRPRPRPCATPRP | 0.331 |
| RRIRLRPPRLPRPRPRPCCMPRP | -0.408 |
| RRIRLRPPRLPRPRPRPCDPPRP | -0.14 |
| RRIRLRPPRLPRPRPRPCDRPRP | -0.114 |
| RRIRLRPPRLPRPRPRPCEPPRP | 0.023 |
| RRIRLRPPRLPRPRPRPCFYPRP | -0.504 |
| RRIRLRPPRLPRPRPRPCGTPRP | -0.0819 |
| RRIRLRPPRLPRPRPRPCHCPRP | -0.0469 |
| RRIRLRPPRLPRPRPRPCHGPRP | -0.0309 |
| RRIRLRPPRLPRPRPRPCIGPRP | -0.147 |
| RRIRLRPPRLPRPRPRPCKPPRP | -0.1 |
| RRIRLRPPRLPRPRPRPCMSPRP | 0.0623 |
| RRIRLRPPRLPRPRPRPCNHPRP | -0.0991 |
| RRIRLRPPRLPRPRPRPCNWPRP | 0.0532 |
| RRIRLRPPRLPRPRPRPCQQPRP | -0.047 |
| RRIRLRPPRLPRPRPRPCSLPRP | 0.00822 |
| RRIRLRPPRLPRPRPRPCSMPRP | -0.00844 |
| RRIRLRPPRLPRPRPRPCSRPRP | 0.06 |
| RRIRLRPPRLPRPRPRPCSTPRP | -0.0337 |

| Sequence | shrunken log2 fold change |
| --- | --- |
| RRIRLRPPRLPRPRPRPCSYPRP | -0.259 |
| RRIRLRPPRLPRPRPRPCVCPRP | -0.00623 |
| RRIRLRPPRLPRPRPRPCWDPRP | -0.104 |
| RRIRLRPPRLPRPRPRPCWVPRP | -0.00196 |
| RRIRLRPPRLPRPRPRPCYGPRP | -0.0306 |
| RRIRLRPPRLPRPRPRPDACPRP | 0.252 |
| RRIRLRPPRLPRPRPRPDCVPRP | 0.0107 |
| RRIRLRPPRLPRPRPRPDCYPRP | -0.558 |
| RRIRLRPPRLPRPRPRPDEEPRP | 0.138 |
| RRIRLRPPRLPRPRPRPDESPRP | 0.148 |
| RRIRLRPPRLPRPRPRPDGKPRP | -0.0351 |
| RRIRLRPPRLPRPRPRPDHAPRP | 0.0162 |
| RRIRLRPPRLPRPRPRPDHRPRP | -0.041 |
| RRIRLRPPRLPRPRPRPDHSPRP | -0.0489 |
| RRIRLRPPRLPRPRPRPDKCPRP | -0.0114 |
| RRIRLRPPRLPRPRPRPDKEPRP | 0.0143 |
| RRIRLRPPRLPRPRPRPDLCPRP | 0.307 |
| RRIRLRPPRLPRPRPRPDLPPRP | -0.0128 |
| RRIRLRPPRLPRPRPRPDMEPRP | 0.0384 |
| RRIRLRPPRLPRPRPRPDMNPRP | -0.155 |
| RRIRLRPPRLPRPRPRPDNFPRP | 0.0569 |
| RRIRLRPPRLPRPRPRPDNKPRP | -0.357 |
| RRIRLRPPRLPRPRPRPDPAPRP | 0.752 |
| RRIRLRPPRLPRPRPRPDRAPRP | 0.0122 |
| RRIRLRPPRLPRPRPRPDRHPRP | -0.279 |
